Test results published in patent publication US20160139137.

Legend:
[1] = tested on: T1, In-active peptide (NH2-Cys-Lys-Pro-Val-Lys-TAMRA, SEC ID NO: 3)
T1 sequence: CKPVK

[2] = tested on: T2, Pro-active peptide (NH2-Cys-Lys-Arg-Val-Lys-TAMRA, SEQ ID NO: 2)
T2 sequence: CKRVK

Trypsin (13.000-20.000 units/mg)
fluorescence emission spectra of the one-colour QD540@SiO2 system after incubation with trypsin [1]: the control sample with the “in-active” QD540@SiO2 system, as expected, did not show any significant change in the fluorescence emission | fluorescence emission of QD660@SiO2@QD540@SiO2 nanoparticles at 25 µg/L versus 350 µg/L trypsin [2]: Increasing the enzyme concentration led to faster recovery of the original emission at 540 nm | fluorescence emission spectra of the one-colour QD540@SiO2 system after incubation with trypsin (loss of FRET on peptide cleavage) [2]: The spectroscopic profiles further demonstrated the existence of FRET processes between the QD540@SiO2 nanospheres and the “pro-active” TAMRA-labelled peptide | ratio of PL emission peaks I540/I660 during enzymatic digestion for 120 minutes at 25-350 µg/L trypsin [2]: There was a direct relationship between the enzymatic digestion rate and the enzyme concentration
